Publication PMC10965912, “FliH and FliI help FlhA bring strict order to flagellar protein export in Salmonella” (Communications Biology, 2024)

T1: FlgK (Salmonella enterica serovar Typhimurium, UniProt P0A1J5 1-553)
T1 construct: FlgK, filament-type export substrate, Salmonella enterica serovar Typhimurium (plasmid pMKGK2, pTrc99A); source: E. coli BL21 Star (DE3), purified (Q-Sepharose anion exchange)
T1 sequence: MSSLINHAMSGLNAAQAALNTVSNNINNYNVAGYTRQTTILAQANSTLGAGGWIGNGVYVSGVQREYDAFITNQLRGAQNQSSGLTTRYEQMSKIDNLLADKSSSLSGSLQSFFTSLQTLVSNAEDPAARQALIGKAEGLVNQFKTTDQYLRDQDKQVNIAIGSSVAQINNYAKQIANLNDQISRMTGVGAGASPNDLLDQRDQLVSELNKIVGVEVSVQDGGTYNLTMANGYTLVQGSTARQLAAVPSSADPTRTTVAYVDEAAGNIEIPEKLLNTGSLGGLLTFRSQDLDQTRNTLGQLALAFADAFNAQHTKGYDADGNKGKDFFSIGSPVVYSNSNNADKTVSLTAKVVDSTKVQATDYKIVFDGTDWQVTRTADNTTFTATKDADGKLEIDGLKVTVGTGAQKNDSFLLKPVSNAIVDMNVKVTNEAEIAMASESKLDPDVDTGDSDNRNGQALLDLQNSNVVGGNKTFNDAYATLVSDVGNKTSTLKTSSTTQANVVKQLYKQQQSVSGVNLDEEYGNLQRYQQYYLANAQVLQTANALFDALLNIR

B1: His-FlhAC with the Y369A/R370A/L371A/I372V (AAAV) mutation (domain or fragment)
chain: AGILIMVINVVGGLLVGVLQHGMSIGSAAESYTLLTIGDGLVAQIPALVISTAAGVIVTRVSTDQDVGEQMVGQLFSNPRVMLLAAAVLGLLGMVPGMPNLVFLLFTAALLGLAWWLRGREEKAPEEPQPVKMPENNSVVEATWNDVQLEDSLGMEVGAAAVPMVDFQQDGELLGRIRSIRKKFAQDMGFLPPVVHIRDNMDLQPARYRILMKGVEIGSGDAYPGRWLAINPGTAAGTLPGEKTVDPAFGLDAIWIESALKEQAQIQGFTVVEASTVVATHLNHLIGQFSAELFGRQEAQQLLDRVSQEMPKLTEDLVPGVVTLTTLHKVLQNLLAEKVPIRDMRTILETLAEHAPLQSDPHELTAVVRVALGRAITQQWFPGNEEVQVIGLDTALERLLLQALQGGGGLEPGLADRLLAQTQEALSRQEMLGAPPVLLVNHALRPLLSRFLRRSLPQLVVLSNLELSDNRHIRMTATIGGK
notes: Intragenic suppressor (A372V) of the AAAA mutant; also called FlhA_(C-AAAV); His-FlhA_(C-AAAV); source: E. coli BL21 Star (DE3), purified (Ni-NTA, SEC); not shown: His tag, N-terminal, kept
B2: GST-FlgN (natural protein)
chain: MTRLSEILDQMTTVLNDLKTVMDAEQQQLSVGQINGSQLQRITEEKSSLLATLDYLEQQRRLEQNAQRSANDDIAERWQAITEKTQHLRDLNQHNGWLLEGQIERNQQALEVLKPHQEPTLYGADGQTSVSHRGGKKISI
notes: FlgN, flagellar export chaperone, Salmonella enterica serovar Typhimurium (plasmid pMMGN101, pGEX-6p-1); source: Salmonella SJW1368, purified (glutathione Sepharose 4B)

What was measured:
[1] = target: the molecule itself; experiment: high-speed atomic force microscopy; ring formation of purified FlhAC monomer (2 μM) in 50 mM Tris-HCl pH 8.0, 100 mM NaCl placed on mica, room temperature; imaged in 10 mM Tris-HCl pH 6.8
[2] = target: T1, FlgK; experiment: pull-down; GST affinity chromatography: purified His-FlhAC mixed with purified GST-FlgN/FlgK complex or GST-FliJ, dialyzed overnight against PBS pH 7.4 at 4 °C, loaded on glutathione Sepharose 4B, eluted with 10 mM reduced glutathione; SDS-PAGE with CBB staining; conditions: both partners purified

Binder | stoichiometry N [1] | binding result [2]
B1 | 9 | –
B2 | – | binds
